The target of one data set is T1, Δ55AnCYPOR (Anopheles minimus, UniProt A4ZIT2).
T1 construct: soluble form lacking the N-terminal membrane region (Δ55), pET28a vector, expressed in E. coli BL21 (DE3), purified
T1 sequence (A4ZIT2 56-679): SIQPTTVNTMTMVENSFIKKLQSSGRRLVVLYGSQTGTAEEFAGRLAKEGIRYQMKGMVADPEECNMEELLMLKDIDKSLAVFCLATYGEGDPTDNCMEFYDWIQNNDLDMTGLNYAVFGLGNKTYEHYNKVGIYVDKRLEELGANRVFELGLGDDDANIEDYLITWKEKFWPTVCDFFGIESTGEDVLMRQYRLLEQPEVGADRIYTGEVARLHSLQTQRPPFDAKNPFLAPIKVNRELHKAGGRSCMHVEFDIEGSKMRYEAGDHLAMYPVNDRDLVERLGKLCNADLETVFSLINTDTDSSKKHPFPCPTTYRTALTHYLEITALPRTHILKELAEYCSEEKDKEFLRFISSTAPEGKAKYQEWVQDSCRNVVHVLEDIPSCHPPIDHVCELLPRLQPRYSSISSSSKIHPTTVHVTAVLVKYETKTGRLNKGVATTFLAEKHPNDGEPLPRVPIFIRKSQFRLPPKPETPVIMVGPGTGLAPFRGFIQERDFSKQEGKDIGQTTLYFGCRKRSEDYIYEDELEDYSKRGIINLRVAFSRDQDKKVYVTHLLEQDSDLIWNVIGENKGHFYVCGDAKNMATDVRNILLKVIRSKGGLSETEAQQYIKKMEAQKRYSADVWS
As to the kind of experiment: flavin content of purified protein, fluorometric. It counts as binding. The note with it: co-purified flavin; no affinity constant. The text has this: flavin content of purified protein, fluorometric on Δ55AnCYPOR

Data set [1] deals with NC(=O)C1=CN([C@@H]2O[C@H](COP(=O)(O)OP(=O)(O)OC[C@H]3O[C@@H](n4cnc5c(N)ncnc54)[C@H](OP(=O)(O)O)[C@@H]3O)[C@@H](O)[C@H]2O)C=CC1. As to the kind of experiment: purified protein. The following applies: 0.1 M Tris-Cl pH 7.5, 25 °C, co-substrate cytochrome c, extra flavins added. It counts as biochemical, Anopheles minimus.
For data set [2], the system named is T2, CYP6AA3 reconstituted with flAnCYPOR.
T2 construct: CYP6AA3 in Sf9 baculovirus microsomes; with NADPH--cytochrome P450 reductase
The data set is described as follows: benzyloxyresorufin O-dealkylation, fluorescence of resorufin, microsomes + purified CYPOR. It counts as biochemical, Anopheles minimus. The following applies: 50 mM Tris-HCl pH 7.5; wild-type flAnCYPOR; apparent Km; read-out: CYP3AA3-mediated BROD activity (pmole resorufin produced/min/pmol P450) ^a / Km.

Data set [3] relates to T3, CYP6AA3 reconstituted with rat CYPOR.
T3 construct: CYP6AA3 in Sf9 baculovirus microsomes; purified rat CYPOR (pIN-rat CYPOR, E. coli C43 (DE3), Ni-NTA) added, ratio 3:1; with NADPH--cytochrome P450 reductase (Rattus norvegicus)
The data set is described as above. The note with it: 50 mM Tris-HCl pH 7.5; rat CYPOR as redox partner; apparent Km; read-out: CYP3AA3-mediated BROD activity (pmole resorufin produced/min/pmol P450) ^a / Km. It counts as biochemical, Anopheles minimus.

Substrate in the data set “purified protein”: NC(=O)C1=CN([C@@H]2O[C@H](COP(=O)(O)OP(=O)(O)OC[C@H]3O[C@@H](n4cnc5c(N)ncnc54)[C@H](OP(=O)(O)O)[C@@H]3O)[C@@H](O)[C@H]2O)C=CC1
The data set is described as follows: purified protein. The note with it: 0.1 M Tris-Cl pH 7.5, 25 °C, co-substrate cytochrome c, extra flavins added.

As to `Cc1cc2nc3c(=O)[nH]c(=O)nc-3n(C[C@H](O)[C@H](O)[C@H](O)COP(=O)(O)O)c2cc1C` [FMN], the “FMN ^a” value at Δ55AnCYPOR is 0.52 ± 0.01 mol/mol.

With “Δ55AnCYPOR (Anopheles minimus; L219F/L86F/W678H)”, in data set [1], the Km stood at 1.91 ± 0.44 µM.

In the case of “Δ55AnCYPOR (Anopheles minimus; C427R/L219F/L86F)”, the Km in data set [1] is 7.02 ± 1.75 µM.

Turning to “Δ55AnCYPOR (Anopheles minimus; L219F/L86F/W678A)”, the Km in data set [1] turned out to be 3.34 ± 0.83 µM.

As to “Δ55AnCYPOR (Anopheles minimus; L219F/L86F)”, in data set [1], the Km came to 6.49 ± 1.19 µM.

With `Cc1cc2nc3c(=O)[nH]c(=O)nc-3n(C[C@H](O)[C@H](O)[C@H](O)COP(=O)(O)OP(=O)(O)OC[C@H]3O[C@@H](n4cnc5c(N)ncnc54)[C@H](O)[C@@H]3O)c2cc1C` [FAD], the “FAD ^a” value on Δ55AnCYPOR stood at 0.64 ± 0.03 mol/mol.

For `O=c1ccc2nc3ccc(OCc4ccccc4)cc3oc-2c1` [benzyloxyresorufin], the Km in data set [2] was found to be 1.9 ± 0.61 µM; in data set [3], 1.69 ± 0.24 µM.

B1: Δ55AnCYPOR (Anopheles minimus) (protein)
chain: SIQPTTVNTMTMVENSFIKKLQSSGRRLVVLYGSQTGTAEEFAGRLAKEGIRYQMKGMVADPEECNMEELLMLKDIDKSLAVFCLATYGEGDPTDNCMEFYDWIQNNDLDMTGLNYAVFGLGNKTYEHYNKVGIYVDKRLEELGANRVFELGLGDDDANIEDYLITWKEKFWPTVCDFFGIESTGEDVLMRQYRLLEQPEVGADRIYTGEVARLHSLQTQRPPFDAKNPFLAPIKVNRELHKAGGRSCMHVEFDIEGSKMRYEAGDHLAMYPVNDRDLVERLGKLCNADLETVFSLINTDTDSSKKHPFPCPTTYRTALTHYLEITALPRTHILKELAEYCSEEKDKEFLRFISSTAPEGKAKYQEWVQDSCRNVVHVLEDIPSCHPPIDHVCELLPRLQPRYSSISSSSKIHPTTVHVTAVLVKYETKTGRLNKGVATTFLAEKHPNDGEPLPRVPIFIRKSQFRLPPKPETPVIMVGPGTGLAPFRGFIQERDFSKQEGKDIGQTTLYFGCRKRSEDYIYEDELEDYSKRGIINLRVAFSRDQDKKVYVTHLLEQDSDLIWNVIGENKGHFYVCGDAKNMATDVRNILLKVIRSKGGLSETEAQQYIKKMEAQKRYSADVWS
Consider B1, for which the Km in the data set “purified protein” came out at 9.61 ± 0.30 µM.

(Values after PMC3565348, “Modeling of Anopheles minimus Mosquito NADPH-Cytochrome P450 Oxidoreductase (CYPOR) and Mutagenesis Analysis” (International Journal of Molecular Sciences, 2013).)
